Test results taken from patent publication US20240059790A1 (JANUX THERAPEUTICS, published 2024).

Target: T1, polypeptide complex 1 (PC-1)
T1 construct: also called Intact PC-1; uncleaved PC-1
Test: ELISA ('Cyno Albumin ELISA')

B1: cynomolgus monkey albumin (other)
chain: DTHKSEVAHRFKDLGEEHFKGLVLVAFSQYLQQCPFEEHVKLVNEVTEFAKTCVADESAENCDKSLHTLFGDKLCTVATLRETYGEMADCCAKQEPERNECFLQHKDDNPNLPPLVRPEVDVMCTAFHDNEATFLKKYLYEVARRHPYFYAPELLFFAARYKAAFAECCQAADKAACLLPKLDELRDEGKASSAKQRLKCASLQKFGDRAFKAWAVARLSQKFPKAEFAEVSKLVTDLTKVHTECCHGDLLECADDRADLAKYMCENQDSISSKLKECCDKPLLEKSHCLAEVENDEMPADLPSLAADYVESKDVCKNYAEAKDVFLGMFLYEYARRHPDYSVMLLLRLAKAYEATLEKCCAAADPHECYAKVFDEFQPLVEEPQNLVKQNCELFEQLGEYKFQNALLVRYTKKVPQVSTPTLVEVSRNLGKVGAKCCKLPEAKRMPCAEDYLSVVLNRLCVLHEKTPVSEKVTKCCTESLVNRRPCFSALELDEAYVPKAFNAETFTFHADMCTLSEKEKQVKKQTALVELVKHKPKATKEQLKGVMDNFAAFVEKCCKADDKEACFAEEGPKFVAASQAALA
notes: Antigen immobilized on the ELISA plate
binding result: binds
